From the nanobody polyreactivity screen of Harvey et al. (2022) come the findings set out here.

The nature of the data set: yeast display, Sf9 membrane polyspecificity reagent, FACS + sequencing; frameworks hold sequencing errors. The method, boiled down: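 Nanobodies from a synthetic yeast display library (Saccharomyces cerevisiae BJ5465), induced 36–48 hours with galactose, were stained 1 hour at 4 °C with 10% biotinylated, detergent-solubilized Sf9 membrane reagent, enriched on streptavidin microbeads, then FACS-sorted. Anti-HA (expression) and streptavidin (reagent binding) fluorescence set low and high (top ~1%) gates. Polyreactivity labels come from the gate of origin. Genes were colony-PCR amplified, MiSeq 2 × 250 sequenced and filtered by CDR length.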
“QVQLVESGGGLVQAGGSLRLSCAASGRTFKYYAMGWYRQAPGKERELVAAISSGGSTYYADSVKGRFTISRDNAKNTVYLQMNSLKPEDTAVYYCAAYSSYFRRRKWGYDYWGQGTQVTVSS”: the “polyreactivity (PSR sort gate)” value is “high polyreactivity”.

As for “QLQLEESGGGLVQAGGSLRLSCAAYGSIYYYNGMGWYRQAPAKERELVAAISSSGGRTYYADSVKGRFTISRDNENNTVYLQMNSLKPEDPAVYYCYDSGFGKTGFGYDYWGQGTQVTVSS”, the “polyreactivity (PSR sort gate)” value was “low polyreactivity”.

With “QVQLVESGGGLVQAGGSLRLSCAASGRIFYYNAMGWYRQAPGKERELVATITGSGGSTYYADSVKGRFTISRDNAKNTVYLQMNSLKPEDTAVYYCNATRWYYDFYKLDYWGQGTQVTVSS”, the “polyreactivity (PSR sort gate)” value is listed as “low polyreactivity”.

With “QVQLVESGGGLVQAGGSLRLSCAASGRTFNGNTMGWYRQAPGKERQLVAAISRNGGRTYYADSVKGRFTISRDNAKNTVYLQMNSLKPEDTAVYYCATVYRPGGVYGYWGQGTQVTVSS”, the “polyreactivity (PSR sort gate)” value is on record as “high polyreactivity”.

Consider “QVQLVETGRGLLQAGGTLLLTCAASGSIYTYAMGWYKQAHGTQRELVAAISRSGGRTYYADSVKGRFTNSRDNAKNTVYLQMNSLKPEDTAVYYCAALLLKDYDYLGQGTQVTVSS”, for which the “polyreactivity (PSR sort gate)” value is “low polyreactivity”.

For “QVQLVESGGGLVQAGGRLRLSCAASGSIFRRYAMGWYRQAPGKERELVAAISSTPITYYADSVKGRFTISRDNAKNTVYLQMNSLKPEDTAVYYCAAELLLSYYYGLEDDYWGQGTQVTVSS”, the “polyreactivity (PSR sort gate)” value is given as “low polyreactivity”.

Consider “QVQLVESGGGLVQAGGRLRLSCAASGSTFLSNDMGWYRQAPGKERELVAAISQSGGNTYYADSVKGRFTISRDKAKNTVYLQMNSVKPEDTAVYYWAALDYWVQGTQVTVSS”, for which the “polyreactivity (PSR sort gate)” value is given as “low polyreactivity”.

Take “QVQLVESGGGLVQAGGSLRLSSAASGITFGRNTMGWYRQAPGKEREFVAAIDSGGNTYADSVQGRFTISRDNAKNTVYLQMNSLKPEDTAVYYCAVAGGEFSSYGYLGQGTQVTVSS”: the “polyreactivity (PSR sort gate)” value is on record as “low polyreactivity”.

On to “QVQLVESGGGLVQAGGSLRLSCAASGSIFRTNTMGWYRQAPGKEREFVAAITAIGDSTYYADSVKGRFTISRDNAKNTVYLQMNSLKPEDTAVYYCAAEKVSWGYHFYSSYDYWGQGTQVTVSS”, for which the “polyreactivity (PSR sort gate)” value is reported as “low polyreactivity”.

On to “QVQLVESGGGLVQAGGSLRLSCAASGFIFTGYAMGWYRQAPGKERELVASISSGGSTYYADSVKGRFTISRDNAKNTVYLLMNSLKPEDTAVYYCNASVSLGRYPGNEYDYEYWGQGTQVTVSS”, for which the “polyreactivity (PSR sort gate)” value is reported as “low polyreactivity”.

Turning to “QVQLVESGGGLVQAGGSLRLSCAASGFIFGYYAMGWYRQAPGKERELVAAISSGSITTYADSVKGRFTISRDNAKNTVYLQMNSLKPEDTAVYYCNAVRWFFTFVSSSSGVGHGYWGQGTQVTVSS”, the “polyreactivity (PSR sort gate)” value is on record as “low polyreactivity”.

On to “QDQLVESGGGLVQAGGSLRLSFAASGSTFWYNDMGWYRQAPGKERELVASISWSGGDTYYADSVKGRFTISRDNAKNSVYLQMNSLKPEDTEVYYCAKGNNWISRLMDYWGQGTQVTVSS”, for which the “polyreactivity (PSR sort gate)” value is reported as “low polyreactivity”.

Regarding “QVQLVESGGGLVQAGGSLRLSCAASGSIFYRNAMGWYRQAPGKERELVAAISSDGSTNYADSVKGRFTISRDNAKNTVYLQMNSLKPEDTAVYFCAAPWTQILDYWGQGTQVTVSS”, the “polyreactivity (PSR sort gate)” value is on record as “low polyreactivity”.

On to “QVQLLESGGGLVQAGGSLRLSCAASGSTFKSYAMGWYRQAPGKERELVAAISGRGGSTYYADSVKGRVTISRDNAKNTVYLQMNSLKPEDTAVYYCNALGSQRYDYWGQGTQVTVSS”, for which the “polyreactivity (PSR sort gate)” value is “high polyreactivity”.

On to “QVQLVESGGGLVQAGGSLRLSCAASGRIFRVNAMGWYRQAPGKDREFVAAITASSGRTSYADSVKGRFTISRDNAQNTVYLQMNSLKPEDTAVYYCNAAVSQFSHRWRRRITFDYWGQGTQVTVSS”, for which the “polyreactivity (PSR sort gate)” value is “low polyreactivity”.

With “QVQLVESGGGLVQAGGSLRLSCAASGFTFGHYAMGWYRQAPGKERELVAAISIDGGRTYYADSVKGRFTISRDNAKNTVYLQMNSLKPEDTAVYYCAVPRWVYYTSDYDYWGQGTQVTVSS”, the “polyreactivity (PSR sort gate)” value is on record as “high polyreactivity”.

As to “QVQLVESGGGLVQAGRSNRLSCAASGSLFPDYTMGWYRQAPGQERELVAGSTWNRGGTYYADSVKGRFTISRDNAKNTVYLQMNILKPEDTAVYYCAAEWSGSRSSGAWGPYNYWGQGSQVTVSS”, the “polyreactivity (PSR sort gate)” value is “low polyreactivity”.

In the case of “QVQLVESGGGLVQAGGSLGLSCAASGRSFYFYAMGWYRQAPGKERELVAALSRGGGTNYADSVKGRFTLSRDNATNTVYLQMNSLKPEDTAVYDCAARPGPYWTVTFRSPKYYYWGQGTQVTVSS”, the “polyreactivity (PSR sort gate)” value is listed as “high polyreactivity”.

“QVQLVETGGGLVQAGGSLRLICAASASTFGYYAMGWYRQAPGKERELVAGIRYRGGSTSYADSVKGRFTISRDNAKNTVYLQLNSLKREDTAVYYCANGIYRGRTSSFRMGYWGQVTQVTVSS”: the “polyreactivity (PSR sort gate)” value is on record as “low polyreactivity”.

Consider “QVQLVDSGGGLVQAGGSLSLSCAASGSTFTDYDMGWYRQAPGKERELVAAITSGGSTNYADSVKGRFTISRDNAKKTVYLQMNSLNPEATAVYYCAAADADRKYDYWGQGTQVTVSS”, for which the “polyreactivity (PSR sort gate)” value was “low polyreactivity”.

As to “QVQLVESGGGLVQAGGSLRLSCAASGRTFFCYAMGWYRQAPGKERELVAAITYRGGGTYYADSVKGRFTISRDNAKNTVNLQMNSLKPEDTAVYYCAAEYWVGVYLYDYWGQGTQVTVSS”, the “polyreactivity (PSR sort gate)” value is “high polyreactivity”.

Turning to “QVQLVESGGGLVQAGGSLRLRCAASGFTFTRYAMGWYRQAPGKERELVAVITSTAGSTYYADSVKGRFTISRDNAKNTVYLQMNSLKPEDTAVYYCAAESLVHGDVTLEEVVAQSYDYWGQGTQVTVSS”, the “polyreactivity (PSR sort gate)” value is given as “low polyreactivity”.

Regarding “QVQLVESGGGLVQAGGSLRLSCAASGSIFRYYAMGWYRQAPGKEREFVAAISRSGGSTYYADSVKGRFTISRDNAKNTVYLQMNSLKPEDTAVYYCAASYYRYFVSLGYDYWGQGTQVTVSS”, the “polyreactivity (PSR sort gate)” value is “high polyreactivity”.

For the sequence “QVQLVESGGGLVQAGGSLRLSCAASGRIFIANTMGWYRQAPGKERELVAAITQRGDSTYYADSVKGRFTISRDNAKNTVYLQMNSLKPEDTAVYYCAARYYLSSYVRYNYWGQGTQVTVSS”, the “polyreactivity (PSR sort gate)” value is given as “high polyreactivity”.

As to “QVQLVESGGGLVQAGGSLRLSCAASGRTFSRYAIGWYRQAPGKERDLVAAITRTGGSTYYADSVKGRFTISRDNAKNTVYLQMNSLKPEDTAVYYCAAAYPGVWYDYNYWGQGTQVTVSS”, the “polyreactivity (PSR sort gate)” value is “high polyreactivity”.

For the sequence “QVQLVESGGGLVQAGGSLRLSCAASGRTFNVNVMGWSRQAPGKERELVAAIRYTGGSTYADSVKGRFTISRDNAKNTVYLQMNSLKPEDTAVYYCNADTFFPFDHGMDYWGQGTQVTVSS”, the “polyreactivity (PSR sort gate)” value is “low polyreactivity”.

Regarding “QVQLVESGGGLVQAGGSLRLSCAASGSTFYIYAMGWYRQAPGKERELVAAINWRTGSTYYADSVKGRFTISRDNAKNTVYLQMNSLKPEDTAVYYCNAYTKHWSYWGQGTQVTVSS”, the “polyreactivity (PSR sort gate)” value was “high polyreactivity”.

Regarding “QVQLVESGGGLVQAGGSLRLSCAASGGIFAYYVMGWYRQAPGKERELVASISSGGGTYYADSVKGRFTISRDNAKNTVYLQMNSLKPEDTAVYYCAARWLRYVYPDGHLFWYDYWGQGTQVTVSS”, the “polyreactivity (PSR sort gate)” value is “high polyreactivity”.

Take “QVQLVESGGGLVQAGCSLRLSCAASGRIFSYNAMGWYRPAPAKERELVAAISSDGSTYYADSVKGRFTISRDNAKNTVYLQMNSLKPEDTAVYYCAAYPRVNGNILSTGDYWGQGTQVTVSS”: the “polyreactivity (PSR sort gate)” value is recorded as “low polyreactivity”.

Regarding “QVQLVESGGGLVQAGGSLRLSCAASGRTFYPYAMGWYRQATGKERELVAAIDYSSATTYYADSVKGRFTISRDNAKNTVYLQMNSLKPEDTAVYYCARVGIGVGWSKLNYWGQGTQVTVSS”, the “polyreactivity (PSR sort gate)” value is “low polyreactivity”.
